Experimental data as given in patent US20230333108, “APTAMER-BASED POINT-OF-CARE ASSAY DEVICES AND METHODS” (The Regents of the University of California, published 2023).

B1: N-aptamer (anti-N protein aptamer) (ssDNA)
DNA: TTTTTTGCAATGGTACGGTACTTCCGGATGCGGAAACTGGCTAATTGGTGAGGCTGGGGCGGTCGTGCAGCAAAAGTGCACGCTACTTTGCTAA
B2: S-aptamer (anti-S protein aptamer) (ssDNA)
DNA: TTTTTTCAGCACCGACCTTGTGCTTTGGGAGTGCTGGTCCAAGGGCGTTAATGGACA

Experiments:
[1] = molecular target: SARS-CoV-2 nucleocapsid (N) protein (SARS-CoV-2, UniProt P0DTC9 P0DTC9:1-419); assay: competition; settings: tags: Sino Biological; label: 5'-biotin
[2] = molecular target: SARS-CoV-2 spike (S) protein (SARS-CoV-2, UniProt P0DTC2 P0DTC2:14-1213); assay: competition; settings: tags: Sino Biological; label: 5'-biotin

Row | Binder | binding result [1] | binding result [2]
1 | B1 | binds | –
2 | B2 | – | binds
